Tests used:
[1] = target: T1, CyPet-Ubc9 (SUMOylation E2 conjugating enzyme Ubc9 fused to the FRET donor CyPet) (human, UniProt P63279 1-158); experiment: FRET or BRET; conditions: both partners purified
T1 construct: also called SUMO E2

[2] = target: T2, CyPet-PIAS1 (SUMOylation E3 ligase PIAS1 fused to the FRET donor CyPet) (human, UniProt O75925 1-651); experiment: FRET or BRET; conditions: both partners purified
T2 construct: also called SUMO E3
T2 sequence (O75925 whole entry, the tested form may be a part): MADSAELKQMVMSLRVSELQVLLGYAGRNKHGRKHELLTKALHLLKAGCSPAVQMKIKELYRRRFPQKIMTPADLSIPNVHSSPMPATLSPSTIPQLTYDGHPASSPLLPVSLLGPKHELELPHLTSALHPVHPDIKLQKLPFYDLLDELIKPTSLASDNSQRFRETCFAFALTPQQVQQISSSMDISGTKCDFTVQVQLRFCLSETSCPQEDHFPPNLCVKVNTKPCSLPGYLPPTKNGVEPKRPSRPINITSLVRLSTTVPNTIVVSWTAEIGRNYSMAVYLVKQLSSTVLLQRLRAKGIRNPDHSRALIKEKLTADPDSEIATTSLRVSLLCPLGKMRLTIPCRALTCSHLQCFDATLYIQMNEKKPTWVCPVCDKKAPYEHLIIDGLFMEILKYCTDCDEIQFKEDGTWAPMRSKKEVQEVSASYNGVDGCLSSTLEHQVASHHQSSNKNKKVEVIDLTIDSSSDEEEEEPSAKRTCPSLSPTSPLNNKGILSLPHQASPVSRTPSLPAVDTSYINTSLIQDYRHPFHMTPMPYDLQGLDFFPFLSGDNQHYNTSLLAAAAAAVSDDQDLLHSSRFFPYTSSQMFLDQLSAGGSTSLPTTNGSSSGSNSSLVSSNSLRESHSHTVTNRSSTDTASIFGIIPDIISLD

T1 sequence (P63279 whole entry, the tested form may be a part): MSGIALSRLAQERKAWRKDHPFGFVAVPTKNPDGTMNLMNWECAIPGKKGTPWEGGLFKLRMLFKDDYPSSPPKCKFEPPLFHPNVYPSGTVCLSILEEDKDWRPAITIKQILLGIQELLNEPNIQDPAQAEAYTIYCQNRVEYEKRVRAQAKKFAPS

B1: YPet-Linker3-M1 (M1 protein of influenza B virus fused to the FRET acceptor YPet) (natural protein)
chain: MSLFGDTIAYLLSLTEDGEGKAELAEKLHCWFGGKEFDLDSALEWIKNKRCLTDIQKALIGASICFLKPKDQERKRRFITEPLSGMGTTATKKKGLILAERKMRRCVSFHEAFEIAEGHESSALLYCLMVMYLNPGNYSMQVKLGTLCALCEKQASHSHRAHSRAARSSVPGVRREMQMVSAMNTAKTMNGMGKGEDVQKLAEELQSNIGVLRSLGASQKNGEGIAKDVMEVLKQSSMGNSALVKKYL
Kd [1]: 200 nM
Kd [2]: 220 nM

From PMC8876058 (Viruses, 2022)
